Assay results reported in PMC9933633.

Target: SARS-CoV-2 Spike RBD (SARS-CoV-2, UniProt P0DTC2 319-541)
Assay: electrochemical aptasensor

B1: Spike RBD aptamer (51-base, Song et al. 2020) (structured_DNA)
DNA: CAGCACCGACCTTGTGCTTTGGGAGTGCTGGTCCAAGGGCGTTAATGGACA
modifications: 5' C6-NH2
B1: binds.
